US10660951

What was measured:
[1] = biological target: envelope glycoprotein of HIV-1 HXB2 on pseudotyped virus (HIV-1 HXB2) (UniProt P04578); experiment: cell-based or functional assay
[2] = biological target: envelope of HIV-1 isolate CNE5 on pseudotyped virus (HIV-1 CNE5); experiment: cell-based or functional assay

## b12 (antibody)
[1]
  ND50, neutralization of pseudotyped virus (luciferase): 0.119 µg/mL
[2]
  ND50, neutralization of pseudotyped virus (luciferase): 23.1 µg/mL
